The source of these data is patent publication US7144731B2, “SCF antibody compositions and methods of using the same” (Amgen Inc., priority 1989, dated 2006).

One series relates to Balb/c mice. Put plainly: 5-FU experimental thrombocytopenia. The series is classed as in vivo, mouse. On the procedure:
Balb/c mice were either untreated or treated intravenously with 5-fluorouracil (150 mg/kg) on Day 0 (n=5). Blood analyses were performed on the indicated days as in legend to FIG. 53. Error bars are present, but not discernable, in some of the control points. […] After Day 12, platelet counts appeared to cycle from normal to high levels throughout the 40 day testing period. […] Two Balb/c mice per group were sacrificed at the indicated days. Cells from bone marrow (Panel A) or spleen (Panel B) were aliquoted at 100,000/well of a microtiter plate and stained for acetylcholinesterase according to published procedures, Long et al., Immature megakaryocytes in the mouse: Morphology and quantitation by acetlycholinesterase staining. Blood 58: 1032, 1981. Data points are the percentage of ACH+ cells per well for individual animals.
Platelet volumes also increase after 5-FU (FIG. 57). The data in this figure were generated from the same blood samples collected in FIG. 55. Mean Platelet Volume (MPV) is one of the parameters analyzed by the Sysmex Cell Analyzer.
The possibility of a relationship between SCF and the physiological regulator of platelet production induced in the 5-FU thrombocytopenic model was explored. 5-FU was given to normal mice and SCF mRNA expression levels quantitated in bone marrow cells collected on the days indicated in FIG. 58. In FIG. 58, one million cells were lysed in SDS buffer and the lysate was analyzed for the presence of mRNA specific for murine SCF. […] RNA sense strand standards for quantitation of the hybridization assays were produced by runoff transcription of the same region in the direction opposite to the direction of probe synthesis using tracer quantities of ^35S-UTP and 0.2 mM unlabeled UTP.
SCF or actin mRNA levels were quantitated as follows. […] After addition of 5 mls Liquiscint (New England Nuclear; Boston, Mass.) samples were counted 20 minutes or to 3% error. […]

Series [1] addresses T1, SCF receptor (OCIM1 plasma membrane) (Homo sapiens, UniProt P10721).
T1 construct: endogenous in cells; host or cells: OCIM1 human erythroleukemic cells, plasma membrane preparation
Put plainly: SCF radioreceptor assay. The series is classed as binding. On the procedure:
OCIM1 cells, [Papayannopoulou et al., Blood 72:1029–1038 (1988)] are a human erythroleukemic cell line expressing many human SCF receptors per cell. These cells are grown in Iscove's Modified Dulbecco's Medium, 10% FBS, and 1× glutamine and passaged 3 times a week to 1×10^5 cells/ml.
Preparation of the OCIM1 plasma membrane is as follows with all steps performed on ice.
First, 40 T175 flasks of cells were grown-up in OCIM1 culture medium, for a total of 1.9×10^9 […]. The conditioned medium and 1 mM Phenyl Methyl Sulfonyl Fluoride (PMSF) protease inhibitor, was spun down in 8×250 ml tubes at 1000 rpm for 10 minutes at 4° C. Cells were washed with PBS and repelleted in 4×50 ml centrifuge tubes at 1000 rpm for 10 minutes at 4° C. Cells were resuspended in 20 ml ice cold PBS with glucose sodium pyruvate (Gibco Cat #310-4287). The 20 ml cell solution was put into a pre-pressurized, pre-chilled (4° C.) “cell bomb” designed to lyse the cells. Cells were pressurized at 400–650 PSI for 10 minutes to establish equilibrium. When the pressure is released cell lysis occurs.
At this point the cells were checked for the percentage of cell lysis. 90% lysis was common. The cell suspension was resuspended in 80 mls sucrose buffer (0.25M sucrose, 10 mM Tris, 1 mM EDTA in double distilled (dd) H2O, filtered through a 0.45 u filter, pH 7.0) and divided between two 40 ml screwcap tubes. Tubes were spun at 5900 RPM for 10 minutes in a Beckman J2-21 centrifuge, JA-20 rotor at 4° C. The supernatants were saved and spun one more time as above to further remove any unwanted material. Supernatants were saved and distributed equally into 2 nalgene 40 ml centrifuge tubes. These supernatants were centrifuged at 16,000 RPM 4° C. for 30 min. in J2-21 centrifuge, JA-20 rotor. These supernatants were discarded being careful to save pellets. Each pellet was resuspended in sucrose buffer so there were 20 mls per tube in 4×36 ml plastic ultracentrifuge tubes. Using a 20 ml syringe and a large trochar, the solution was carefully underlayered in each tube with ice cold 36% sucrose solution (36.1 g sucrose/100 mls ddH2O), bringing the level of the liquid to within 2 mm of the top of the tube. Without disturbing the interface, each tube was carefully placed into each of […] titanium ultracentrifuge tubes. Tubes were centrifuged at 27,000 RPM, 4° C. for 75 minutes in an ultracentrifuge. These tubes were carefully removed from the rotor and from titanium buckets, placed in a rack with the 36% sucrose interface visible. The membraneous material at the interface was collected with a pasteur pipet and transfered into 2 clean nalgene 40 ml centrifuge tubes. Volume was brought up to 40 mls with ice cold sucrose buffer. Tubes were balanced and centrifuged as before at 5900 RPM in J2-21 centrifuge. […]

A further series concerns UT-7 cells. Put plainly: UT-7 ^3H-thymidine uptake assay. The series is classed as cell-based, human. On the procedure:
UT-7 cells are a human megakaryocyte, huGM-CSF responsive cell line obtained from John Adamson, New York Blood Center, New York, N.Y. UT-7 cells were cultured in Iscove's Modified Dulbecco's Medium, 10% FBS, 1× glutamine, 5 \g/ml huGM-CSF. Cells are passaged twice a week at 1×10^5 cells/ml.
Cells were washed twice in phosphate buffered saline (PBS) and resuspended in RPMI medium with 4% FBS and glutamine penicillin streptomycin (GPS) (Irvine Scientific Cat No. 9316 used at 1% volume per volume) at 4×10^4 cells/ml before use. Human SCF along with specific samples were added to 4000 cells/well in 96 well plates and were cultured for 72 hrs. 0.5 uCi/well of ^3H-Thymidine was then added to each plate, plates were harvested and counted 4 hours later.

“Also recorded” adds a separate entry of the source.

For `O=c1[nH]cc(F)c(=O)[nH]1` [5-FU, 5-fluorouracil], in the series on Balb/c mice (150 mg/kg i.v.), the “megakaryocyte numbers (ACH+ cells) in bone marrow and spleen” value is “rise dramatically”; the platelet volumes entry is reported as “increase”. Besides, in the series on Balb/c mice (150 mg/kg i.v. on Day 0), the “platelet counts, time course” value is reported as “thrombocytopenic by Day 5; also recorded: rebound thrombocytosis”.
Turning to “SCF^11-164: E. coli human SCF analog, amino acids 11 to 164”, the “specific activity in the radioreceptor assay” value in series [1] is on record as “negligible specific activity”. The “specific activity in the UT-7 assay” value in the series with UT-7 cells is on record as “negligible specific activity”.
Take “SCF^1-137: E. coli human SCF analog, amino acids 1 to 137”: the “specific activity in the radioreceptor assay” value in series [1] was “full specific activity”. In addition, in the series on UT-7 cells, the “specific activity in the UT-7 assay” value was “about 25 % of the value for SCF^1-164”.

B1: SCF^1-130: E. coli human SCF analog, amino acids 1 to 130 (protein)
chain: EGICRNRVTNNVKDVTKLVANLPKDYMITLKYVPGMDVLPSHCWISEMVVQLSDSLTDLLDKFSNISEGLSNYSIIDKLVNIVDDLVECVKENSSKDLKKSFKSPEPRLFTPEEFFRIFNRSIDAFKDFV
On to B1, for which the “specific activity in the radioreceptor assay” value in series [1] was “about 50 % of the value for SCF^1-164”. Further, in the series on UT-7 cells, the “specific activity in the UT-7 assay” value was “about 15 % of the value for SCF^1-164”.
